Reference: patent publication US20240141038A1 (SHANGHAI QILU PHARMACEUTICAL RESEARCH AND DEVELOPMENT CENTRE, published 2024)
Where two headings read alike, the source gives them in different places.

How the values were obtained:
[1] = biological target: T1, human NKp46 (full length, on cells) (human, UniProt O76036 22-304); test: flow cytometry on human NKp46-CHOK1 cells
Description: (§1) The stable human NKp46-CHOK1 and cynomolgus monkey NKp46-CHOK1 cell lines obtained in Example 2 were cultured, the cells were digested with 0.25% pancreatic enzyme EDTA for about 5 minutes, and the digestion was terminated with the complete medium. After centrifugation at 1,500 rpm for 5 minutes, the supernatant was discarded, the precipitated cells were resuspended with PBS containing 1% BSA and counted. The cell density was adjusted to 1E6/mL and seeded in a corning-3799 96-well culture plate at 100 μL/well. Aftering centrifuging at 1,500 rpm for 5 minutes, the supernatant was discarded and the precipitate was set aside at 4° C. The antibody solutions were prepared with PBS containing 1% BSA, wherein the antibody solution has an initial concentration was 100 nM, then diluted in 10-fold to obtain 7 gradients: 10⁻⁴ nM, 10⁻³ nM, 10⁻² nM, 10⁻¹ nM, […], and 10² nM. The prepared antibody solutions were used to resuspend the cells, 100 μL/well. The resuspended cell culture plates were incubated in a 4° C. freezer for 1 h. After centrifugation at 1500 rpm for 5 minutes, the supernatant was discarded. The precipitate was washed with 160 μL of PBS containing 1% BSA, the supernatant was discarded, and the cells were stored for later use.
(§2) The Secondary antibody (goat anti human IgG Fc PE) solution was prepared with PBS containing 1% BSA, and diluted 1:200. The cells were resuspended with the prepared secondary antibody solution, 100 μL/well, incubated in a 4° C. freezer for 0.5 h. After centrifugation at 1,500 rpm for 5 minutes, the supernatant was discarded, the precipitated cells were washed with 160 μL of PBS containing 1% BSA, the supernatant was discarded, the cells were resuspended with 100 μL of PBS containing 1% BSA, and filtered in 300-mesh gauze. The mean fluorescence intensity of antibody binding to cells was then analyzed on a flow cytometer. The FCS file was exported from the flow cytometer, the mean fluorescence intensity (hereinafter referred to as MFI) of PE channel was analyzed with Flowjo software, and the mean fluorescence intensity obtained was introduced into the Graphpad to analyze the half binding concentration (hereinafter referred to as EC₅₀) and the top mean fluorescence intensity (Top MFI) of the antibody and the cell.

[2] = biological target: cynomolgus monkey NKp46 (full length, on cells) (cynomolgus monkey) (UniProt Q95JB9); test: flow cytometry on cynomolgus monkey NKp46-CHOK1 cells
cynomolgus monkey NKp46 (full length, on cells) (cynomolgus monkey), sequence (Q95JB9 22-306): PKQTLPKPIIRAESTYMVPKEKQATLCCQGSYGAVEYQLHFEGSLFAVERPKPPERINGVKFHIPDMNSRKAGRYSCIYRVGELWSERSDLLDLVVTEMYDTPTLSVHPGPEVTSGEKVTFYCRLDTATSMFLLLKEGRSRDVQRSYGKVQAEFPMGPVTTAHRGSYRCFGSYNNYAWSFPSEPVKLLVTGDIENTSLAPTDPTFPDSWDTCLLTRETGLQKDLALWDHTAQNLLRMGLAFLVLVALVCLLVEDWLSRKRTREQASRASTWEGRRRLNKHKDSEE

[3] = biological target: cynomolgus monkey NKp46 (full length, on cells) (cynomolgus monkey) (UniProt Q95JB9); test: as above; remark: listed apart in the source
[4] = biological target: T1, human NKp46 (full length, on cells); test: cell-based or functional assay
[5] = biological target: T2, cynomolgus monkey NKp46 (full length, on cells) (cynomolgus monkey, UniProt Q95JB9 22-306); test: flow cytometry on cynomolgus monkey NKp46-CHOK1 cells
T2 construct: also called cynomolgus monkey NKp46-CHOK1; cynomolgus NKp46-CHOK1
T2 sequence (Q95JB9 22-306): as above
Description: as §1, §2

[6] = biological target: T3, Human NKp46 antigen for immunization, screening, and testing (Kactus, NKP-HM146) (human, UniProt O76036 22-255); test: SPR (Biacore 8K), antibody captured on anti-human Fc, NKp46 as analyte, 1:1 fit
T3 construct: Bought protein; also called human NKp46 antigen protein; human NKp46 protein
T3 sequence (O76036 other isoform, or with tags, fused parts or gaps limits assumed): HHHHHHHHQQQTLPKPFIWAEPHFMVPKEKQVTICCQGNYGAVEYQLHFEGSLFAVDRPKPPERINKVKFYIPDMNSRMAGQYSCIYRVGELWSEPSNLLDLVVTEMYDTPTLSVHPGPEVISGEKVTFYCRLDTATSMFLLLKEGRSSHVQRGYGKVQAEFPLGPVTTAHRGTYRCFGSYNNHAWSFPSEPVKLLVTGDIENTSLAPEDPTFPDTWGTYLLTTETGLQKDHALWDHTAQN
Description: Human NKp46 was diluted in two-fold to a serial concentration (400 nM-3.125 nM), then combined for 90 s at a flow rate of 50 μL/min, and dissociated for 500 s.
(§3) At the end of each round of experiments, 3 M MgCl₂ solution was used to rinse at a flow rate of 30 μL/min for 30 s, and the captured antibody was removed along with the antigen to complete the regeneration of the chip. The raw data were analyzed using Biacore Insight Evaluation Software (version 3.0.12.15655) software and (1:1) Langmuir model was fit to the data. Compared with the anti-NKp46 humanized antibody and the corresponding chimeric antibody, the affinity to the human NKp46 antigen protein is mostly maintained.

[7] = biological target: T4, Cynomolgus monkey NKp46 for immunization, screening, and testing (Kactus, NKP-CM146) (cynomolgus monkey, UniProt Q95JB9 22-254); test: as above
T4 construct: Bought protein; also called monkey NKp46 antigen protein; cynomolgus monkey NKp46 antigen
T4 sequence (Q95JB9 other isoform, or with tags, fused parts or gaps limits assumed): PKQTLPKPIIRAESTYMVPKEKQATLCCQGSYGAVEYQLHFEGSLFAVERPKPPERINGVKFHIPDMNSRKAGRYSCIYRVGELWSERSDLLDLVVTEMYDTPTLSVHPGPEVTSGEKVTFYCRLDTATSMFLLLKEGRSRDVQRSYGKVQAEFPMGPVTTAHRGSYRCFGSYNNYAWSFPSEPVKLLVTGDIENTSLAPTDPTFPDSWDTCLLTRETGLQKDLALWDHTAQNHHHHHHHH
Description: Cynomolgus monkey NKp46 was diluted in two-fold to a serial concentration (400 nM-3.125 nM), combined for 90 s at a flow rate of 50 μL/min and dissociated for 500 s.
as §3

T1 sequence (O76036 22-304 Q82K): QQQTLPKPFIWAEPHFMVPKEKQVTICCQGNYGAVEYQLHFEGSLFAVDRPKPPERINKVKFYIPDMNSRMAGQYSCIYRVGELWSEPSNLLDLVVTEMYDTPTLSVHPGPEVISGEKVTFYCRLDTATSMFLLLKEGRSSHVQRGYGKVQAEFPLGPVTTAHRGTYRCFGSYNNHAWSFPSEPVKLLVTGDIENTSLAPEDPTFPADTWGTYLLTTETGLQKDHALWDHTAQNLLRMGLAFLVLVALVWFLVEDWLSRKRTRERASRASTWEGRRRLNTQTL

Top MFI [1] | Top MFI ([1]; record 2) | Top MFI [2] | Top MFI [3] | EC50 of NK cell activation (CD107a-positive NK cells, plate-coated antibody) [4] | Top mean fluorescence intensity (Top MFI), NK cell activation (CD107a) [4] | EC50 [1] | EC50 [5] | Top MFI [5] | Kd [6] | koff [6] | kon [6] | Kd [7] | koff [7] | kon [7] | Molecule
223 | 98 | 118 | 86 |  |  |  |  |  |  |  |  |  |  |  | Anti-HEL human IgG1 LALA (Biointron, Cat. number B109802) (antibody)
5940 |  |  |  | 0.63 nM | 35.3 | 0.203 nM | 2.11 nM | 3270 | 10.9 nM | 0.000959 s⁻¹ | 87800 M⁻¹ s⁻¹ | 7.69 nM | 0.000596 s⁻¹ | 77500 M⁻¹ s⁻¹ | H2-PA31 humanized antibody (antibody, human IgG1, V domains shown, not shown: constant region of human IgG1) VH: EVQLVESGGGLVQPGGSLRLSCAVSGRTFSRLPMGWFRQAPGKGLEFVAAISWSSSTTYYADSVKGRFTISRDNSKNTAYLQMNSLRAEDTAVYYCAAVGGSLDYSATVVYTAARAYADWGQGTLVTVSS
5610 |  |  |  | 0.75 nM | 39.1 | 0.274 nM | 2.76 nM | 3590 | 24.1 nM | 0.00154 s⁻¹ | 63800 M⁻¹ s⁻¹ | 7.34 nM | 0.000563 s⁻¹ | 76700 M⁻¹ s⁻¹ | H2-PA45 humanized antibody (antibody, V domains shown, not shown: constant region of human IgG1) VH: EVQLVESGGGLVQPGGSLRLSCAASGRTFSRLPMAWFRQAPGKGLEFVAAISWSGGSTYYADSMKGRFTISRDNSKNTAYLQMNSLRAEDTAVYYCAAVGDSAPYSATIVYTDARAYAYWGQGTLVTVSS
6940 |  |  |  | > 20 nM | 14.1 | 0.153 nM | 0.069 nM | 3800 | 22.1 nM | 0.00216 s⁻¹ | 97700 M⁻¹ s⁻¹ | 23.4 nM | 0.0059 s⁻¹ | 252000 M⁻¹ s⁻¹ | H2-PA27 humanized antibody (antibody, human IgG1, V domains shown, not shown: constant region of human IgG1) VH: QVQLVESGGGVVQPGRSLRLSCAASGRTESWYRMGWFRQAPGKGLEVVARISGDTNIKYYAGSVKGRFTISRDNSKNTLYLQMSSLRAEDTAVYYCAADRTGATWDYWGQGTLVTVSS
